Data: paper PMC10460880, “Cathepsin K‐Activated Probe for Fluoro‐Photoacoustic Imaging of Early Osteolytic Metastasis” (Advanced Science, 2023)

Assays:
[1] = Fluorescence quantum yield and molar extinction coefficient; assay type: physicochemical; conditions: MES buffer 50 mM pH 6.0, 0.1% DMSO
Protocol: Determination of the fluorescence quantum yield and molar extinction coefficient.
Fluorescence quantum yield (Φf) was determined by using ICG (Φf = 0.13 in DMSO) as a fluorescence standard. The quantum yield was calculated using the following equation: ΦF(X) = ΦF(S) (ASFX / AXFS) (nX / nS)2, Where ΦF is the fluorescence quantum yield, A is the absorbance at the excitation wavelength, F is the area under the corrected emission curve, and n is the refractive index of the solvents used. Subscripts S and X refer to the standard and to the unknown, respectively. The excitation wavelength was at 690 nm while keeping the absorption below 0.05. To calculate the molar extinction coefficient (ε), the absorption at 690 nm of different concentrations of the CTSK-APPA before or after CTSK cleavage (0, 0.5, 1, 2, 5, 10 μM) was measured. According to the Lambert-Beer law, the extinction coefficient was the slope of the fitted curve between concentration and absorption. Both fluorescence quantum yield and extinction coefficient were measured in MES buffer (50 mM, pH 6.0) containing 0.1% DMSO. […]

[2] = tested on: CTSK + 2-CP; CTSB, FAP-α, Casp-3, APN, GGT, ALP, ACE, trypsin; experiment: Selectivity study: fluorescence activation with inhibited CTSK or other proteases; assay type: biochemical; conditions: probe 10 μM, 1 h; 2-CP 50 mM pre-treatment 30 min; n = 3
Protocol: In vitro analysis of cathepsin K (CTSK) activation, selectivity, and sensitivity studies.
Probe CTSK-APPA, D-CTSK-APPA, or CTSK-APP (10 μM) was incubated with CTSK in MES buffer (50 mM, pH 6.0) containing 0.1% DMSO, 2 mM ethylene diamine tetraacetic acid (EDTA), 4 mM dithiothreitol (DTT) and 0.15% chondroitin sulfate (CS) at 37 °C for 1 h. After incubation at the indicated time, UV-Vis spectra, fluorescence spectra, fluorescence images, and PA images of the solutions were recorded. Probe CyP (10 μM) incubated with CTSK (200 ng/mL) for 1 h was further analyzed by HPLC. For selectivity study, CTSK-APPA (10 μM) in a 96-well plate was incubated with CTSK (100 ng/mL), CTSB (100 ng/mL), FAP-α (9×10-4 U/mL), Caspase-3 (100 ng/mL), APN (100 ng/mL), GGT (0.1 U/mL), ALP (0.1 U/mL), ACE (1×10-3 U/mL), and trypsin (10 U/L) at […] for 1 h. For the inhibitory experiment, CTSK (100 ng/mL) was treated with CTSK inhibitor 2-Cyanopyrimidine (2-CP, 50 mM) at 37°C for 30 min. […]
Kinetic assay. […] Fluorescence intensities of solution were measured for quantification analyses by a microplate reader (BioTek, Synergy 2) with excitation at 690 nm and emission at 720 nm. The kinetic parameters were calculated according to the Michaelis-Menten equation shown below: V = Vmax×[S]/(Km + [S]), where V is initial velocity, and [S] is substrate concentration. […]

[3] = Renal clearance efficiency study; assay type: in vivo, BALB/c nude mice; conditions: mice, i.v. 50 μM, 200 μL; urine, UV absorbance at 615 nm; n = 3
Protocol: Bone marrow toxicity analysis. The bone marrow toxicity of CTSK-APPA and CTSK-APP was assessed by blood analyses in mice. SPF grade 4-week-old BALB/c nude mice were intravenously injected with CTSK-APPA(50 μM, 200 μL) or saline (200 μL). The blood samples were collected in anticoagulant tubes at 24 h post-injection and stored at 4°C. The red blood count (RBC) and white blood count (WBC) were further measured.
Renal clearance efficiency studies. SPF grade 4-week-old BALB/c nude mice were intravenously injected with CTSK-APPA or CTSK-APP (50 μM, 200 μL) and placed in metabolic cages. The urine was collected at 3, 6, and 24 h post-injection, and then centrifuged at 5000 r.p.m. for 5 min. The supernatants containing excreted probes were quantified by using a UV-vis absorption spectrometer. […]
In vivo Bioluminescence, DR, CT, and MR imaging. […] Then BL imaging was recorded on an IVIS Spectrum imaging system at 10 min post-injection under anesthesia using isoflurane. All data were analyzed with the Living Image software. DR, CT, and MR imaging were recorded on an IVIS Spectrum imaging system, a single-photon emission computed tomography imaging system, and a preclinical magnetic resonance solution system, respectively.
Real-time tumor imaging. […] Fluorescence and PA images were acquired at 0, 1, 2, 4, 8, 12, and 24 h post-injection. […]
Histology. […] Images were captured by using a fluorescence microscope. […]

Cbz‐Leu‐Arg‐OH [CTSK-APPA]
fluorescence quantum yield (Φf) after CTSK cleavage ([1]; ICG standard, Ex 690 nm): 3.5% | fluorescence quantum yield (Φf) before CTSK cleavage ([1]; ICG standard, Ex 690 nm): 0.5% | molar extinction coefficient ε after CTSK cleavage ([1]; absorption at 690 nm, 0-10 μM): 50230 M⁻¹ cm⁻¹ | molar extinction coefficient ε before CTSK cleavage ([1]; absorption at 690 nm, 0-10 μM): 28580 M⁻¹ cm⁻¹ | fluorescence activation at 720 nm by CTSK with inhibitor 2-CP or by other proteases [2]: almost no fluorescence activation | renal clearance efficiency 24 h post-injection [3]: 58.4%
